{"source": "patent US8415106B2", "about": "“Cell-based screen for agents useful for reducing neuronal demyelination or promoting neuronal remyelination” (Myelin Repair Foundation, Inc., priority 2005, dated 2013)", "system": "developing oligodendrocytes and myelin", "assay": "IFN-γ-overexpressing mice crossed to PLP/SOCS1 mice: tremor, oligodendrocyte density, G ratio, unmyelinated axons at postnatal day 21", "assay_type": "in vivo", "details": "for Incidence of tremor: 172 × PLP/SOCS1 system", "description": "The transgenic mice MBP/IFN-γ and GFAP/tTA×TRE/IFN-γ (lines 184/110 and 184/67) that overexpress IFN-γ in the CNS have been described elsewhere (Corbin et al., 1996; Gao et al., 2000; Lin et al., 2004, 2005). Briefly, MBP/IFN-γ mice are transgenic animals in which IFN-γ expression is driven by the myelin basic protein (MBP) transcriptional control region (Gao et al., 2000). GFAP/tTA×TRE/IFN-γ are double-transgenic mice obtained by mating single-transgenic GFAP/tTA to single-transgenic TRE/IFN-γ (lines 110 and 67) mice. The two TRE/IFN-γ mouse lines, line 110 and line 67, used in the experiments produce different amounts of IFN-γ when crossed to GFAP/tTA mice (184/110 and 184/67) (Lin et al., 2004, 2005). GFAP/tTA×TRE/IFN-γ is a tetracycline-off-inducible system in which the glial fibrilary acidic protein (GFAP) transcriptional control region drives the expression of tTA, which in turn, binds to the TRE (tet responsive element) and initiates the expression of IFN-γ. Administration of doxycycline suppresses tTA DNA binding and IFN-γ expression, and doxycycline removal allows for temporally-controlled induction of IFN-γ expression (Gao et al., 1999).\nIFN-γ-overexpressing mice were crossed to the PLP/SOCS1 mice in double-transgenic, (MBP/IFN-γ×PLP/SOCS1) and triple-transgenic (GFAP/tTA×TRE/IFN-γ×PLP/SOCS1) mating systems. MBP/IFN-γ×PLP/SOCS1 (172×PLP/SOCS1) mating was performed according to a standard mating protocol. The GFAP/tTA×TRE/IFN-γ×PLP/SOCS1 matings were performed in a 2-step mating process: GFAP/tTA mice were initially crossed to PLP/SOCS1 mice, and double-positive (184×PLP/SOCS1) offspring were then crossed to the TRE/IFN-γ lines 110 and 67, separately. This second mating step was performed according to the previously described “tet-off” protocol. Doxycycline 0.05 mg/ml (Sigma-Aldich) was added to the water of impregnated female mice until embryonic day 14, after which the animals were switched back to normal water, thereby allowing initiation of IFN-γ transcription, which peaks during the postnatal period (Lin et al., 2005).\nThe litters of the mating systems (F1 generation) were examined daily and sacrificed at postnatal day 21. Clinical evaluation included behavioral observation and challenged ladder walking to elicit tremor. Histological examination included quantitation of the number and density of oligodendrocytes and examination of the myelination patterns. Brain tissue was simultaneously obtained from each animal at the time of sacrifice to verify and measure the expression of IFN-γ and Flag-SOCS1 (see below). The clinical and histological findings were subsequently stratified according to genotype. All animal procedures were conducted in compliance with the National Institutes of Health Guide for Care and Use of Laboratory Animals and were approved by the Institutional Animal Care and Use Committee at The University of Chicago.\nOligodendrocyte cell density was assessed digitally using Axiovision software, at postnatal day 21, as previously described (Lin et al., 2005). The brains were sectioned sagittally through the corpus callosum dividing the brain in two symmetrical halves. Ten frozen sections from each half were prepared at 7 μm thickness, and numbered in the sequence of their preparation. The brains of three animals per study group were prepared in this fashion. Following the CC1 immunostaining the corresponding area of corpus callosum of each section was digitally selected and the corresponding total area obtained. CC1 cell counting was performed manually within the selected areas of each section, and the number of CC1 positive cells per square area (mm^2) calculated. The results were presented as mean±SD of CC1 (+) cells/mm^2 with n=3 animals per study group. […]", "key": {"[1]": {"details": "184/67×PLP/SOCS1 mice (IFN-γ and SOCS1)"}, "[2]": {"details": "184/110×PLP/SOCS1 mice (IFN-γ and SOCS1)"}}}
{"molecule": "IFN-γ: pleotropic cytokine secreted by activated T lymphocytes and natural killer cells; recombinant rat IFN-γ added to cultures or transgenically expressed in mouse CNS (protein, UniProt P01581 23-156, looked up) Interferon gamma: QGTLIESLESLKNYFNSSSMDAMEGKSLLLDIWRNWQKDGNTKILESQIISFYLRLFEVLKDNQAISNNISVIESHLITNFFSNSKAKKDAFMSIAKFEVNNPQIQHKAVNELIRVIHQLSPESSLRKRKRSRC", "values": [{"measurement": "Incidence of tremor", "setting": "mice expressing IFN-γ only", "value": 0, "unit": "%"}, {"measurement": "Incidence of tremor", "setting": "mice expressing both IFN-γ and SOCS1", "value": 0, "unit": "%"}, {"measurement": "G ratio (axon diameter/fiber diameter ratio)", "setting": "184/67 mice (IFN-γ only)", "value": "0.95±0.04"}, {"measurement": "percentage of unmyelinated axons", "setting": "184/67 mice (IFN-γ only)", "value": "57%±7"}, {"measurement": "oligodendrocytes lost", "setting": "184/67 mice (IFN-γ only) versus wild-type", "value": "approximately 40%"}, {"measurement": "oligodendrocyte density", "setting": "184/67 mice (IFN-γ only), wild-type 144±5", "value": "79±9 CC1 (+) cells/mm^2"}, {"measurement": "G ratio (axon diameter/fiber diameter ratio)", "setting": "[1]", "value": "0.82±0.08"}, {"measurement": "percentage of unmyelinated axons", "setting": "[1]", "value": "17%±4.5"}, {"measurement": "oligodendrocytes lost", "setting": "184/67×PLP/SOCS1 mice (IFN-γ and SOCS1) versus PLP/SOCS1", "value": "approximately 15%"}, {"measurement": "oligodendrocyte density", "setting": "184/67×PLP/SOCS1 mice (IFN-γ and SOCS1), PLP/SOCS1 142±5", "value": "112±7 CC1 (+) cells/mm^2"}, {"measurement": "percentage of unmyelinated axons", "setting": "184/110 mice (IFN-γ only)", "value": "41%±6"}, {"measurement": "oligodendrocytes lost", "setting": "184/110 mice (IFN-γ only) versus wild-type", "value": "approximately 20%"}, {"measurement": "G ratio (axon diameter/fiber diameter ratio)", "setting": "184/110 mice (IFN-γ only), hypomyelination defined as G ratio >0.8", "value": "0.89±0.02"}, {"measurement": "oligodendrocyte density", "setting": "184/110 mice (IFN-γ only), wild-type 146±6", "value": "115±8 CC1 (+) cells/mm^2"}, {"measurement": "G ratio (axon diameter/fiber diameter ratio)", "setting": "[2]", "value": "0.75±0.03"}, {"measurement": "percentage of unmyelinated axons", "setting": "[2]", "value": "13%±3"}, {"measurement": "oligodendrocytes lost", "setting": "184/110×PLP/SOCS1 mice (IFN-γ and SOCS1) versus PLP/SOCS1", "value": "approximately 8%"}, {"measurement": "oligodendrocyte density", "setting": "184/110×PLP/SOCS1 mice (IFN-γ and SOCS1), PLP/SOCS1 141±6", "value": "129±6 CC1 (+) cells/mm^2"}, {"measurement": "percentage of unmyelinated axons", "setting": "MBP/IFN-γ×PLP/SOCS1 (172×PLP/SOCS1) littermates, regardless of genotype", "value": "less than 9%"}]}
